Tests used:
GABA = assay: Ion channel panel (IonWorks Barracuda): GABA; type: cell-based; conditions: 100% = no change, <100% = inhibition
How it was run: (§1)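 Transfected HEK293 or CHO cells were exposed for at least 5 min to peptides at 200 nM and 20 μM final, tested in duplicate, in HEPES-buffered physiological saline. Activation was taken as peptide-plus-agonist current over control current ×100, and inhibition as 1 minus that ratio ×100. Each channel's control was its own reference compound.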

α4β2 = biological target: T1, α4β2 (Homo sapiens, UniProt P17787+P43681); assay: Ion channel panel (IonWorks Barracuda): α4β2; type: cell-based; conditions: 100% = no change, <100% = inhibition
T1 construct: host or cells: HEK293 or CHO
How it was run: as §1

NR2B = biological target: T2, NR2B (Homo sapiens, UniProt Q13224); assay: Ion channel panel (IonWorks Barracuda): NR2B; type: cell-based; conditions: 100% = no change, <100% = inhibition
T2 construct: host or cells: HEK293 or CHO
How it was run: as §1

Nav1.7 = biological target: T3, Nav1.7 (Homo sapiens, UniProt Q15858); assay: cell-based; type: cell-based; conditions: 100% = no change; for Activity of Nav1.7 with peptide, expressed as a percentage of the reference compound: peptide at 0.2 μM; for Activity of Nav1.7 with peptide (percentage of the reference compound): peptide at 20 μM
T3 construct: host or cells: HEK293 or CHO
T3 sequence (Q15858 whole entry): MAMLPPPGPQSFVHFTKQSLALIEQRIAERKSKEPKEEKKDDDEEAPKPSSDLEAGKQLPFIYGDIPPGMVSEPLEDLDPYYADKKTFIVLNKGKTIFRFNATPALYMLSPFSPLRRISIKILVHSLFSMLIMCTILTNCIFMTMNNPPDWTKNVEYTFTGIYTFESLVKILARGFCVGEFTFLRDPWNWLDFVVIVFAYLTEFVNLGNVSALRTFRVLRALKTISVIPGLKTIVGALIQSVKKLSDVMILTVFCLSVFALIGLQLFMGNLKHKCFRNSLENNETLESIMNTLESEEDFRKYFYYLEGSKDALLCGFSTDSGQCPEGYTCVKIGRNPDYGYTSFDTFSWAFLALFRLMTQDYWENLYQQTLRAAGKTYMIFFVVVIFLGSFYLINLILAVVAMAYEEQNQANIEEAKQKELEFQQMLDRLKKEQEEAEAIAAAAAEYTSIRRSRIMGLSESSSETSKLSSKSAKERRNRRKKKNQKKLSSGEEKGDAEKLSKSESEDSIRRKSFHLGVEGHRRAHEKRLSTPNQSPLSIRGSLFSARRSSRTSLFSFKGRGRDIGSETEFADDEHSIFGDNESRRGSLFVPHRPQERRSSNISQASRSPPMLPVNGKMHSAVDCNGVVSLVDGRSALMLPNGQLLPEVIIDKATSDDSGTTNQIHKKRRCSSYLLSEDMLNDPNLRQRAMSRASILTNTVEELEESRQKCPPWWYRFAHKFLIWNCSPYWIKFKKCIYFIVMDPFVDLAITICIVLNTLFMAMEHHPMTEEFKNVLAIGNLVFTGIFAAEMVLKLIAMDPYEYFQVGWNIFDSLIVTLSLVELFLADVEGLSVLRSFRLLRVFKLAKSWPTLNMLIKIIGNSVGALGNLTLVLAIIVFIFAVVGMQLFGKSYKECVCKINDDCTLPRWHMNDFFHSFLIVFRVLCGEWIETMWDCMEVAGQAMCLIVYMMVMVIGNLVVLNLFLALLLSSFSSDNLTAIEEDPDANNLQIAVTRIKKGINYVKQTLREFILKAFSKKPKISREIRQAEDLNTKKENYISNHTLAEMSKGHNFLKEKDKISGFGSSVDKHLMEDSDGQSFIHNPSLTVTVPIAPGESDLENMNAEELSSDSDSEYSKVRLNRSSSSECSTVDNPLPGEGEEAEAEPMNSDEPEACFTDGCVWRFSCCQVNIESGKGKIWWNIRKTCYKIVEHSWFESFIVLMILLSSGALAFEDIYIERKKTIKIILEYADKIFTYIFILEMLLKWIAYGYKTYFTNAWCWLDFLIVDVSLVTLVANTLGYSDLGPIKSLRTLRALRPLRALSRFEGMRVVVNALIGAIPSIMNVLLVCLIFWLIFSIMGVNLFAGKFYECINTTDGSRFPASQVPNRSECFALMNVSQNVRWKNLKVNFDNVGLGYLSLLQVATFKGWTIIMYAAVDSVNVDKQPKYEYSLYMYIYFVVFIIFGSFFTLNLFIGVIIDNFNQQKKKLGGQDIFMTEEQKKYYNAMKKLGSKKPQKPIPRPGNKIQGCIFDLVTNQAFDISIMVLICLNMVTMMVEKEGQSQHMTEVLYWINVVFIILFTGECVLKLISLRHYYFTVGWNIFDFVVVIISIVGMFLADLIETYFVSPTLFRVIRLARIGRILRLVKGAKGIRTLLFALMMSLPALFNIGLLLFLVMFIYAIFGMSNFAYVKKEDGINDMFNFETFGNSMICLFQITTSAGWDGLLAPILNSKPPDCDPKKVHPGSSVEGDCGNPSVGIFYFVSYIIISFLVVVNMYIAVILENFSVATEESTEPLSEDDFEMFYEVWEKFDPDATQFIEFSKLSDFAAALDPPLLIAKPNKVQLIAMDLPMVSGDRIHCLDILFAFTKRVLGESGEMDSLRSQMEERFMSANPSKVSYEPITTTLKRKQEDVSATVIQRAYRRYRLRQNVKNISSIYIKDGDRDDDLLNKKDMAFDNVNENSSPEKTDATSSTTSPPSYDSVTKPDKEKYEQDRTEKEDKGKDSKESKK

TRPA1 = biological target: T4, TRPA1 (Homo sapiens, UniProt O75762); assay: Ion channel panel (IonWorks Barracuda): TRPA1; type: cell-based; conditions: 100% = no change, <100% = inhibition
T4 construct: host or cells: HEK293 or CHO
How it was run: as §1

5HT3a = biological target: T5, 5HT3a (Homo sapiens, UniProt P46098); assay: Ion channel panel (IonWorks Barracuda): 5HT3a; type: cell-based
T5 construct: host or cells: HEK293 or CHO
T5 sequence (P46098 whole entry, looked up): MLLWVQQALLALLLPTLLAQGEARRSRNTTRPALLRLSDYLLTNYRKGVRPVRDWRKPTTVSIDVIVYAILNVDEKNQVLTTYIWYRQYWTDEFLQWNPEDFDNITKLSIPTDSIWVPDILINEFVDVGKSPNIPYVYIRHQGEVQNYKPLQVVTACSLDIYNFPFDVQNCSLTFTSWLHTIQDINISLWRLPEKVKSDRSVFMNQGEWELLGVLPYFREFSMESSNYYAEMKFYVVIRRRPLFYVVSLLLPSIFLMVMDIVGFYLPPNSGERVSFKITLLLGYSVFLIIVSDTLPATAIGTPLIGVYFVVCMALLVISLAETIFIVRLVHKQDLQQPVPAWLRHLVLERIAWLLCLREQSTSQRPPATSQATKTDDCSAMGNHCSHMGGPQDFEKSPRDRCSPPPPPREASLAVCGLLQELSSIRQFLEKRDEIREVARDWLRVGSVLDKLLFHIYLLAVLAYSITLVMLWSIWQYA
How it was run: as §1

α3β4 = biological target: T6, α3β4 (Homo sapiens, UniProt P30926+P32297); assay: Ion channel panel (IonWorks Barracuda): α3β4; type: cell-based; conditions: 100% = no change, <100% = inhibition
T6 construct: host or cells: HEK293 or CHO
How it was run: as §1

NR2A = biological target: T7, NR2A (Homo sapiens, UniProt Q12879); assay: Ion channel panel (IonWorks Barracuda): NR2A; type: cell-based; conditions: 100% = no change, <100% = inhibition
T7 construct: host or cells: HEK293 or CHO
How it was run: as §1

Cav2.1 = biological target: T8, Cav2.1 (Homo sapiens, UniProt O00555); assay: cell-based; conditions: 100% = no change, <100% = inhibition
T8 construct: host or cells: HEK293 or CHO
How it was run: as §1

Kv2.1 = biological target: T9, Kv2.1 (Homo sapiens, UniProt Q14721); assay: cell-based; conditions: 100% = no change, <100% = inhibition
T9 construct: host or cells: HEK293 or CHO
T9 sequence (Q14721 whole entry): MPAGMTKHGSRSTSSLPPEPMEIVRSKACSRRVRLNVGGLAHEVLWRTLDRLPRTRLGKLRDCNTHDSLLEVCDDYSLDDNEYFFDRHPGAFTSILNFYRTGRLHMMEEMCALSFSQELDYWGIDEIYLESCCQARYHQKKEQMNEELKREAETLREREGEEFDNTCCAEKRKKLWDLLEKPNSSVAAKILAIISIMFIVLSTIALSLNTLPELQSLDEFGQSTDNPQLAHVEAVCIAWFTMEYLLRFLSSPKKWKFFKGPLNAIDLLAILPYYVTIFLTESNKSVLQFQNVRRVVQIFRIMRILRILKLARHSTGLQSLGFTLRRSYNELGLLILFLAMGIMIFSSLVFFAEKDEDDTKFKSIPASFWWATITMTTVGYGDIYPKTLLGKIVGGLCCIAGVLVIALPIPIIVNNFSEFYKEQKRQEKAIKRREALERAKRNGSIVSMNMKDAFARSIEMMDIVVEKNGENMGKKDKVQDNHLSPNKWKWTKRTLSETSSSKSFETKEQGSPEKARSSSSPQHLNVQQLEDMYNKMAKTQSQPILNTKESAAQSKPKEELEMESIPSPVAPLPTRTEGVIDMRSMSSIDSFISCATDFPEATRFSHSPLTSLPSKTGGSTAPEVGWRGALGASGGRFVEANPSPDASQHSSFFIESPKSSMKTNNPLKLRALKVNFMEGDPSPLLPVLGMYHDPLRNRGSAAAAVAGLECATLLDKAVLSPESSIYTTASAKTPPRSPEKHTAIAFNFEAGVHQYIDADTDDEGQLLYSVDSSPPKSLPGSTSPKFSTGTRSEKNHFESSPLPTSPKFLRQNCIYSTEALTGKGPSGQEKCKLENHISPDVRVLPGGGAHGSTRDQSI
How it was run: as §1

Cav2.2 = biological target: T10, Cav2.2 (Homo sapiens, UniProt Q00975); assay: cell-based; conditions: 100% = no change, <100% = inhibition
T10 construct: host or cells: HEK293 or CHO
How it was run: as §1

Nav1.5 = Nav1.5 (Homo sapiens, UniProt Q14524); assay: in vitro; conditions: 100% = no change; for Activity of Nav1.5 with peptide, expressed as a percentage of the reference compound: peptide at 0.2 μM; for Activity of Nav1.5 with peptide (percentage of the reference compound): peptide at 20 μM
Chain of Nav1.5 (Q14524 whole entry): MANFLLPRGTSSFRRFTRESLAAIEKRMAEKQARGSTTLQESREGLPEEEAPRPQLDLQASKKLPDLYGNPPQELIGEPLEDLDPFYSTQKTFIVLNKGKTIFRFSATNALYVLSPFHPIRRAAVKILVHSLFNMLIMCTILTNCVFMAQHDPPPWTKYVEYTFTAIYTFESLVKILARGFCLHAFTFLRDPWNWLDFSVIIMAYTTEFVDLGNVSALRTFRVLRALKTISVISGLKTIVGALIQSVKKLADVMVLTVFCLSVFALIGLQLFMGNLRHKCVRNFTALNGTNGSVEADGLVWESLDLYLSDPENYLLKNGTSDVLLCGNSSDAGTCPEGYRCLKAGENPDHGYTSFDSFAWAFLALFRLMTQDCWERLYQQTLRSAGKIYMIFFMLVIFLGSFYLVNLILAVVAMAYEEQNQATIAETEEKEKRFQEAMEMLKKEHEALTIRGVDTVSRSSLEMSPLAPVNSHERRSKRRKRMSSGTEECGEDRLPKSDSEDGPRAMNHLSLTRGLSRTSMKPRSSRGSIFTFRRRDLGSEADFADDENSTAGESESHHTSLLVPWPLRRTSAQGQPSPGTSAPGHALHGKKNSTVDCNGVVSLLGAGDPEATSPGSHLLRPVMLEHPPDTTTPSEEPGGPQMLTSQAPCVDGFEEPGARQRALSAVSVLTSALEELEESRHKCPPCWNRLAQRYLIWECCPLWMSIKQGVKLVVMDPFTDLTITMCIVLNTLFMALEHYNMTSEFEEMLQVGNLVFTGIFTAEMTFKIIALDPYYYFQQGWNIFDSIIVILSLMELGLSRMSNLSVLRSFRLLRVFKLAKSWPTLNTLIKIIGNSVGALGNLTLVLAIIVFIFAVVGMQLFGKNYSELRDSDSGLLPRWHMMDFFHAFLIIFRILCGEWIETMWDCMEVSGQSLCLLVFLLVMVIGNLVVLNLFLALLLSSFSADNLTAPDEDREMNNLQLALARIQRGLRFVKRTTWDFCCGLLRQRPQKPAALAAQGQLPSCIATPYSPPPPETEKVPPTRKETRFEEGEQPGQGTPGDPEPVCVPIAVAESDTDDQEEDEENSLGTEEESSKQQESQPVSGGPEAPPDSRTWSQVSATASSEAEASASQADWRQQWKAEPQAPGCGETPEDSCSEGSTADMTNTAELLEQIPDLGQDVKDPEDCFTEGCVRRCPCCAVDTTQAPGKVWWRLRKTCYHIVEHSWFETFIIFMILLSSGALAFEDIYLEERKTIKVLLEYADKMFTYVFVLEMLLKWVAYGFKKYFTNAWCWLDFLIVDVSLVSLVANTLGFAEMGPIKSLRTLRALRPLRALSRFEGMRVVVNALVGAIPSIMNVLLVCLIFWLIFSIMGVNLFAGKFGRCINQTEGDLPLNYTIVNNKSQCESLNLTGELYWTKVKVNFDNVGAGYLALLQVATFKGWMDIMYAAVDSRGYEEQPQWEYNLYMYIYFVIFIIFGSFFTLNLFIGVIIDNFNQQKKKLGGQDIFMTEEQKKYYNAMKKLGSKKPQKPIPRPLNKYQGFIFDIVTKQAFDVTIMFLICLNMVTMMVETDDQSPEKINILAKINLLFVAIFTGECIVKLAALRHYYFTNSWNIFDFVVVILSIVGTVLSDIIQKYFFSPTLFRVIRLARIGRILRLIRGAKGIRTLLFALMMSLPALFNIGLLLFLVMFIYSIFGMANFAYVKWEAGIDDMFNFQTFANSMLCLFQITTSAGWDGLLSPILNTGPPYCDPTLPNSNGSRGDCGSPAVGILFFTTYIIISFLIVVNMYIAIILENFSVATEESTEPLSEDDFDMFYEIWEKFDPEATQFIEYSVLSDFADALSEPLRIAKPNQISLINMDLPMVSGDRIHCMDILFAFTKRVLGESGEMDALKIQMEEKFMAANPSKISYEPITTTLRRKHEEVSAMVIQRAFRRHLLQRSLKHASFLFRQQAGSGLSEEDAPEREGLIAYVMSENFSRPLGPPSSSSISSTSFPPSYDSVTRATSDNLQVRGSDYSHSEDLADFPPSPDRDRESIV
How it was run: as §1

hERG = hERG (Homo sapiens, UniProt Q12809); assay: in vitro; conditions: 100% = no change, <100% = inhibition
How it was run: as §1

Kir2.1 = biological target: T11, Kir2.1 (Homo sapiens, UniProt P63252); assay: Ion channel panel (IonWorks Barracuda): Kir2.1; type: cell-based; conditions: 100% = no change, <100% = inhibition
T11 construct: host or cells: HEK293 or CHO
How it was run: as §1

TRPV1 = biological target: T12, TRPV1 (Homo sapiens, UniProt Q8NER1); assay: Ion channel panel (IonWorks Barracuda): TRPV1; type: cell-based; conditions: 100% = no change, <100% = inhibition
T12 construct: host or cells: HEK293 or CHO
How it was run: as §1

Kv1.1 = biological target: T13, Kv1.1 (Homo sapiens, UniProt Q09470); assay: cell-based; type: cell-based; conditions: 100% = no change, <100% = inhibition
T13 construct: host or cells: HEK293 or CHO
How it was run: as §1

Kv1.3 = biological target: T14, Kv1.3 (Homo sapiens, UniProt P22001); assay: cell-based; type: cell-based; conditions: 100% = no change, <100% = inhibition
T14 construct: host or cells: HEK293 or CHO
How it was run: as §1

Kv1.2 = biological target: T15, Kv1.2 (Homo sapiens, UniProt P16389); assay: cell-based; type: cell-based; conditions: 100% = no change, <100% = inhibition
T15 construct: host or cells: HEK293 or CHO
How it was run: as §1

[1] = first of two Nav1.7 columns (probably TP1)
[2] = second of two Nav1.7 columns (probably TP2)
[3] = first of two Nav1.5 columns (probably TP1)
[4] = second of two Nav1.5 columns (probably TP2)

Substance: 12 (GSNFKVEGACSKPCRKYCIDKGARNGKCINGRCHCYY) [compound 12]
- Activity of GABA with peptide, expressed as a percentage of the reference compound (GABA; peptide at 0.2 μM): 102%
- Activity of GABA with peptide (percentage of the reference compound) (GABA; peptide at 20 μM): 93%
- Activity of a4b2 with peptide, expressed as a percentage of the reference compound (α4β2; peptide at 0.2 μM): 97%
- Activity of a4b2 with peptide (percentage of the reference compound) (α4β2; peptide at 20 μM): 84%
- Activity of NR2B with peptide, expressed as a percentage of the reference compound (NR2B; peptide at 0.2 μM): 122%
- Activity of NR2B with peptide (percentage of the reference compound) (NR2B; peptide at 20 μM): 83%
- Activity of Nav1.7 with peptide, expressed as a percentage of the reference compound (Nav1.7; [1]): 61%
- Activity of Nav1.7 with peptide, expressed as a percentage of the reference compound (Nav1.7; [2]): 66%
- Activity of Nav1.7 with peptide (percentage of the reference compound) (Nav1.7; [1]): 74%
- Activity of Nav1.7 with peptide (percentage of the reference compound) (Nav1.7; [2]): 63%
- Activity of TRPA1 with peptide, expressed as a percentage of the reference compound (TRPA1; peptide at 0.2 μM): 129%
- Activity of TRPA1 with peptide (percentage of the reference compound) (TRPA1; peptide at 20 μM): 80%
- Activity of 5HT3a with peptide (percentage of the reference compound) (5HT3a): 97%
- Activity of 5HT3a with peptide, expressed as a percentage of the reference compound (5HT3a): 96%
- Activity of a3b4 with peptide, expressed as a percentage of the reference compound (α3β4; peptide at 0.2 μM): 103%
- Activity of a3b4 with peptide (percentage of the reference compound) (α3β4; peptide at 20 μM): 94%
- Activity of NR2A with peptide, expressed as a percentage of the reference compound (NR2A; peptide at 0.2 μM): 94%
- Activity of NR2A with peptide (percentage of the reference compound) (NR2A; peptide at 20 μM): 91%
- Activity of Cav2.1 with peptide, expressed as a percentage of the reference compound (Cav2.1; peptide at 0.2 μM): 109%
- Activity of Cav2.1 with peptide (percentage of the reference compound) (Cav2.1; peptide at 20 μM): 104%
- Activity of Kv2.1 with peptide, expressed as a percentage of the reference compound (Kv2.1; peptide at 0.2 μM): 104%
- Activity of Kv2.1 with peptide (percentage of the reference compound) (Kv2.1; peptide at 20 μM): 113%
- Activity of Cav2.2 with peptide, expressed as a percentage of the reference compound (Cav2.2; peptide at 0.2 μM): 115%
- Activity of Cav2.2 with peptide (percentage of the reference compound) (Cav2.2; peptide at 20 μM): 115%
- Activity of Nav1.5 with peptide, expressed as a percentage of the reference compound (Nav1.5; [3]): 98%
- Activity of Nav1.5 with peptide, expressed as a percentage of the reference compound (Nav1.5; [4]): 95%
- Activity of Nav1.5 with peptide (percentage of the reference compound) (Nav1.5; [3]): 131%
- Activity of Nav1.5 with peptide (percentage of the reference compound) (Nav1.5; [4]): 136%
- Activity of hERG with peptide, expressed as a percentage of the reference compound (hERG; peptide at 0.2 μM): 89%
- Activity of hERG with peptide (percentage of the reference compound) (hERG; peptide at 20 μM): 81%
- Activity of Kir2.1 with peptide, expressed as a percentage of the reference compound (Kir2.1; peptide at 0.2 μM): 97%
- Activity of Kir2.1 with peptide (percentage of the reference compound) (Kir2.1; peptide at 20 μM): 102%
- Activity of TRPV1 with peptide, expressed as a percentage of the reference compound (TRPV1; peptide at 0.2 μM): 97%
- Activity of TRPV1 with peptide (percentage of the reference compound) (TRPV1; peptide at 20 μM): 78%
- Activity of Kv1.1 with peptide, expressed as a percentage of the reference compound (Kv1.1; peptide at 0.2 μM): 107%
- Activity of Kv1.1 with peptide (percentage of the reference compound) (Kv1.1; peptide at 20 μM): 84%
- Activity of Kv1.3 with peptide, expressed as a percentage of the reference compound (Kv1.3; peptide at 0.2 μM): 68%
- Activity of Kv1.3 with peptide (percentage of the reference compound) (Kv1.3; peptide at 20 μM): 23%
- Activity of Kv1.2 with peptide, expressed as a percentage of the reference compound (Kv1.2; peptide at 0.2 μM): 88%
- Activity of Kv1.2 with peptide (percentage of the reference compound) (Kv1.2; peptide at 20 μM): 41%
